Target: GFP-tagged Pak1 (human) (UniProt Q13153)
Assay: cell-based or functional assay

Chain of GFP-tagged Pak1 (human) (Q13153 whole entry A26V/E503D): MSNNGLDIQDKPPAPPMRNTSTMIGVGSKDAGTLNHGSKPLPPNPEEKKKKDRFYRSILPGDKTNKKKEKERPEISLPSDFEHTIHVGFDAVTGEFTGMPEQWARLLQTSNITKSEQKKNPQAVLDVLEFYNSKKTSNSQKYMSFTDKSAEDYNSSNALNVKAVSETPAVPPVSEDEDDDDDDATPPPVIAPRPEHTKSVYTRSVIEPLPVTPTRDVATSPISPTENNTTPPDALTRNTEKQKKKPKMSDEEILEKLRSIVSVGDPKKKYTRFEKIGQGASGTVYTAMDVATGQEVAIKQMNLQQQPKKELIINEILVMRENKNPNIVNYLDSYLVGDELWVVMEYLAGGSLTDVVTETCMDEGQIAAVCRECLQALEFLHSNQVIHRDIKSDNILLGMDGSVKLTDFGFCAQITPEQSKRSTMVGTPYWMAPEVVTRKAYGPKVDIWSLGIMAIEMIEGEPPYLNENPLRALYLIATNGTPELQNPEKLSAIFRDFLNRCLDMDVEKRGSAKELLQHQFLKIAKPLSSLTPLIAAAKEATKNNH

vesicle formation (macropinocytosis), confocal microscopy of cotransfected SKBR3 cells (% of the transfected cells): > 80
Substance: RFP-DLC1-1-66 (from UniProt P61273 1-66)

From patent US20040208880A1
